# Source: paper PMC3048825
# Key:
# [1] = target: trimerization domain (TD) of human collagen XVIII, XVIII(TD) (human) (UniProt P39060); assay: AUC
# [2] = target: trimerization domain (TD) of human collagen XVIII, XVIII(TD) (human) (UniProt P39060); assay: cross-linking
# [3] = target: trimerization domain of human type XV collagen, XV(TD) (human); assay: SEC
stoichiometry N [1],stoichiometry N [2],stoichiometry N [3],Substance
2.98,3,,"trimerization domain (TD) of human collagen XVIII, XVIII(TD) (from UniProt P39060 1442-1496) (domain or fragment)"
,,3,"trimerization domain of human type XV collagen, XV(TD) (domain or fragment)"
